Laboratory results taken from patent US20060234293A1, “Polypeptide methods and means” (priority 2002, published 2006).

Molecular target: T1, Biotinylated BRC Repeat 4 peptide (Bio-BRC4) (Homo sapiens, UniProt P51587)
T1 construct: host or cells: chemical synthesis for the peptide; E. coli BL21 Codon Plus for RAD51 F86E
Assay: SPR binding assay of RAD51 F86E on BRC4 coupled-chip
Details: 5 μM in HBSEP, 60 seconds contact time; FIG. 9(a)
Procedure: Measurements were performed on the BIACORE X biosensor (BIACORE AB, Uppsala, Sweden). A continuous flow of de-gassed and 0.22 μm filtered HBSEP running buffer was employed at a constant temperature of 25° C.
Flow cells 1 and 2 of a pre-coated streptavidin Sensor chip SA were conditioned with three sequential 20 μl injections of 1 M NaCl, 50 mM NaOH at a flow rate of 20 μl/min.
Biotinylated BRC Repeat 4 peptide (Bio-BRC4) was immobilized to a level of 200 RU by affinity capture onto Flow cell 2 only. This was achieved by two 20 μl injections of 10 nM Bio-BRC4 in HBS-EP at a flow rate of 20 μl/min. Flow cell 1 represented a reference surface to correct for any refractive index variations and thus was not derivated. Flow cells 1 and 2 were both subsequently treated with three successive injections of 40 μl regeneration solution (10 mM Glycine pH 2.5) at a flow rate of 40 μl/min to ensure baseline stabilization.
The […] mutant RAD51 Phe86Glu (F86E) or Ala89Glu (A89E) protein in solution can then be run over the BRC repeat coupled-chip in a Biacore instrument (Biacore AB, Uppsala, Sweden) or other suitable measuring device for surface-plasmon resonance. Reference corrected data was analysed using BIAevalution software (3.2V) and sensorgrams plotted. […]

T1 sequence (P51587 1517-1551 limits assumed): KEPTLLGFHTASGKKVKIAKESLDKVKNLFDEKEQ
T1 sequence (Q06609 whole entry F86E partner): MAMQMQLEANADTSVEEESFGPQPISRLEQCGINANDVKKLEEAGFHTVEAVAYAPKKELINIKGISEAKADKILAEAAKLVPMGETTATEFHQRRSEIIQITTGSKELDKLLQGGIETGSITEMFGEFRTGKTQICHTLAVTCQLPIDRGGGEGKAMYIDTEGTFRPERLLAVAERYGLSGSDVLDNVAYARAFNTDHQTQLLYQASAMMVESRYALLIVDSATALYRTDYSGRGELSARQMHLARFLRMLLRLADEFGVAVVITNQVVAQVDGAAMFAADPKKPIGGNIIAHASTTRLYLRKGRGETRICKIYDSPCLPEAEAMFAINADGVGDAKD

B1: RAD51 F86E: non-oligomerising mutant RAD51 with Phe86 replaced by glutamic acid (protein, UniProt Q06609 2-339, looked up, variant F86E)
DNA repair protein RAD51 …: AMQMQLEANADTSVEEESFGPQPISRLEQCGINANDVKKLEEAGFHTVEAVAYAPKKELINIKGISEAKADKILAEAAKLVPMGETTATEFHQRRSEIIQITTGSKELDKLLQGGIETGSITEMFGEFRTGKTQICHTLAVTCQLPIDRGGGEGKAMYIDTEGTFRPERLLAVAERYGLSGSDVLDNVAYARAFNTDHQTQLLYQASAMMVESRYALLIVDSATALYRTDYSGRGELSARQMHLARFLRMLLRLADEFGVAVVITNQVVAQVDGAAMFAADPKKPIGGNIIAHASTTRLYLRKGRGETRICKIYDSPCLPEAEAMFAINADGVGDAKD
  binding to the BRC4 coupled-chip: binding can easily be detected
